Measurements taken from publication PMC7046470.
One block for each substance: values may come before it.

How the values were obtained:
[1] = target: HA-Rtn2(mAIM1,2,5,6) (maize)
HA-Rtn2 (maize) [2] = target: HA-Rtn2 (maize)
HA-Rtn2 (maize) [3] = experiment: co-IP; anti-HA affinity gel on lysates of Arabidopsis protoplasts (wild type; also atg5-1) transiently expressing the proteins, incubated with or without 2 mM DTT or 5 μg/mL tunicamycin for 3 hr; 150 mM Tris-HCl pH 7.5, 150 mM NaCl, 1.5% Triton X-100, 2 hr at 4°C
GFP-Atg8a = experiment: co-immunoprecipitation, densitometry of immunoblots; details: Arabidopsis protoplasts; immunoprecipitation with anti-HA antibodies; three biological replicates; parent: est. 1.0; read off a plot
[4] = target: maize Atg8a, split-ubiquitin two-hybrid fusion; experiment: split-ubiquitin Y2H; details: colonies on -LWHA medium versus -LW medium, bait pBT3N-ATG8a, parent: est. 52, read off a plot

Substance: HA-Rtn2 mAIM1,2,5,6
ratio to parent (GFP-Atg8a): 0.02

Substance: maize Rtn2, split-ubiquitin two-hybrid fusion mAIM1
response ([4]; prey pPR3C-Rtn2(mAIM1)): 33%

Substance: maize Rtn2, split-ubiquitin two-hybrid fusion mAIM1,5
response ([4]; prey pPR3C-Rtn2(mAIM1,5)): 16%

Substance: maize Rtn2, split-ubiquitin two-hybrid fusion mAIM1,5,6
response ([4]; prey pPR3C-Rtn2(mAIM1,5,6)): 12%

The remaining lines, values ahead:

percent of Arabidopsis protoplasts (DTT and ConA) with autophagic bodies labeled with both GFP-Atg8a and Rtn2(mAIM1,2,5,6)-mCherry (mCherry fusion) [1]: 23%
percent of Arabidopsis protoplasts (DTT and ConA) with autophagic bodies labeled with both GFP-Atg8a and Rtn2-mCherry (Rtn2 as mCherry fusion) (HA-Rtn2 (maize) [2]): 54%
percent of Arabidopsis protoplasts (DTT and ConA) with autophagic bodies labeled with both GFP-Atg8a and Rtn2(mAIM1)-mCherry (mCherry fusion) (HA-Rtn2(mAIM1) (maize)): 42%
fold increase in binding upon DTT treatment against no DTT (HA-Rtn2 (maize) [3]): 3 fold
Substance: GFP-Atg8a (natural protein)

ratio to parent (GFP-Atg8a): 0.87
Substance: HA-Rtn2 mAIM1

ratio to parent (GFP-Atg8a): 0.38
Substance: HA-Rtn2 mAIM1,5

ratio to parent (GFP-Atg8a): 0.22
Substance: HA-Rtn2 mAIM1,5,6

response ([4]; prey pPR3C-Rtn2(mAIM1,2,5,6)): 7%
Substance: maize Rtn2, split-ubiquitin two-hybrid fusion mAIM1,2,5,6
